Experimental data published in IntAct's records for PubMed 31515488.

B1: Serine/threonine-protein kinase PAK 5 (Homo sapiens), Q9P286 (parent)
chain: MFGKKKKKIEISGPSNFEHRVHTGFDPQEQKFTGLPQQWHSLLADTANRPKPMVDPSCITPIQLAPMKTIVRGNKPCKETSINGLLEDFDNISVTRSNSLRKESPPTPDQGASSHGPGHAEENGFITFSQYSSESDTTADYTTEKYREKSLYGDDLDPYYRGSHAAKQNGHVMKMKHGEAYYSEVKPLKSDFARFSADYHSHLDSLSKPSEYSDLKWEYQRASSSSPLDYSFQFTPSRTAGTSGCSKESLAYSESEWGPSLDDYDRRPKSSYLNQTSPQPTMRQRSRSGSGLQEPMMPFGASAFKTHPQGHSYNSYTYPRLSEPTMCIPKVDYDRAQMVLSPPLSGSDTYPRGPAKLPQSQSKSGYSSSSHQYPSGYHKATLYHHPSLQSSSQYISTASYLSSLSLSSSTYPPPSWGSSSDQQPSRVSHEQFRAALQLVVSPGDPREYLANFIKIGEGSTGIVCIATEKHTGKQVAVKKMDLRKQQRRELLFNEVVIMRDYHHDNVVDMYSSYLVGDELWVVMEFLEGGALTDIVTHTRMNEEQIATVCLSVLRALSYLHNQGVIHRDIKSDSILLTSDGRIKLSDFGFCAQVSKEVPKRKSLVGTPYWMAPEVISRLPYGTEVDIWSLGIMVIEMIDGEPPYFNEPPLQAMRRIRDSLPPRVKDLHKVSSVLRGFLDLMLVREPSQRATAQELLGHPFLKLAGPPSCIVPLMRQYRHH
B2: Fanconi anemia group G protein (Homo sapiens), O15287 (parent)
chain: MSRQTTSVGSSCLDLWREKNDRLVRQAKVAQNSGLTLRRQQLAQDALEGLRGLLHSLQGLPAAVPVLPLELTVTCNFIILRASLAQGFTEDQAQDIQRSLERVLETQEQQGPRLEQGLRELWDSVLRASCLLPELLSALHRLVGLQAALWLSADRLGDLALLLETLNGSQSGASKDLLLLLKTWSPPAEELDAPLTLQDAQGLKDVLLTAFAYRQGLQELITGNPDKALSSLHEAASGLCPRPVLVQVYTALGSCHRKMGNPQRALLYLVAALKEGSAWGPPLLEASRLYQQLGDTTAELESLELLVEALNVPCSSKAPQFLIEVELLLPPPDLASPLHCGTQSQTKHILASRCLQTGRAGDAAEHYLDLLALLLDSSEPRFSPPPSPPGPCMPEVFLEAAVALIQAGRAQDALTLCEELLSRTSSLLPKMSRLWEDARKGTKELPYCPLWVSATHLLQGQAWVQLGAQKVAISEFSRCLELLFRATPEEKEQGAAFNCEQGCKSDAALQQLRAAALISRGLEWVASGQDTKALQDFLLSVQMCPGNRDTYFHLLQTLKRLDRRDEATALWWRLEAQTKGSHEDALWSLPLYLESYLSWIRPSDRDAFLEEFRTSLPKSCDL
partner: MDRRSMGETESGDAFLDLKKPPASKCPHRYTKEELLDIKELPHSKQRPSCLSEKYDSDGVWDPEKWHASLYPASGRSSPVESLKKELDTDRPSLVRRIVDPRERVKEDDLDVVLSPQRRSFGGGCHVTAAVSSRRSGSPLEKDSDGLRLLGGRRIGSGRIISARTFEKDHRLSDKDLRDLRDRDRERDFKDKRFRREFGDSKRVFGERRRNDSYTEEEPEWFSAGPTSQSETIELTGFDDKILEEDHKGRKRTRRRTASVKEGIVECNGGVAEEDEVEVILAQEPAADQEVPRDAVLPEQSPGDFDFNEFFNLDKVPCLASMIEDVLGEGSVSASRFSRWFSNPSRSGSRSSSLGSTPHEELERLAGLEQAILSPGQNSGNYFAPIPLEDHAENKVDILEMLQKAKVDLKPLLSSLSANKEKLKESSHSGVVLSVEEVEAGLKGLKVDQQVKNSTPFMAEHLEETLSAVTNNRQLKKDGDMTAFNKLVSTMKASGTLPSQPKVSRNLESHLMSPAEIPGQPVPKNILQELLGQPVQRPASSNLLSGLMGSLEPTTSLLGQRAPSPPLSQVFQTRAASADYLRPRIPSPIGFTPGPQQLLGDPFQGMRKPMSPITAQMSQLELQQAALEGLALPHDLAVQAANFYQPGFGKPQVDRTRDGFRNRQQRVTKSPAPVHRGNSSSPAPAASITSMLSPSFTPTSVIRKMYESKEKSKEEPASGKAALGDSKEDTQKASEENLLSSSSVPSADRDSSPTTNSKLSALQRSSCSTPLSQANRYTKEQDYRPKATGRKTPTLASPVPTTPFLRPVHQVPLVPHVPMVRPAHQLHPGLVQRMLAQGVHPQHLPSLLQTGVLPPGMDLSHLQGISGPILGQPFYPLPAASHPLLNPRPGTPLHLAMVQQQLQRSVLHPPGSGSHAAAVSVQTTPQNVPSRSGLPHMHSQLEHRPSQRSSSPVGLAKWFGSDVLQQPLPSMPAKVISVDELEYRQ
B3: Protein NOXP20 (Homo sapiens), Q8IWE2 (parent)
chain: MSDDAGDTLATGDKAEVTEMPNSDSLPEDAEVHCDSAAVSHEPTPADPRGEGHENAAVQGAGAAAIGPPVQPQDANALEPPLNGDVTEDTLAECIDSVSLEAEPRSEIPLQEQNYLAVDSPPSGGGWAGWGSWGKSLLSSASATVGHGLTAVKEKAGATLRIHGVNSGSSEGAQPNTENGVPEITDAATDQGPAESPPTSPSSASRGMLSAITNVVQNTGKSVLTGGLDALEFIGKKTMNVLAESDPGFKRTKTLMERTVSLSQMLREAKEKEKQRLAQQLTMERTAHYGMLFDEYQGLSHLEALEILSNESESKVQSFLASLDGEKLELLKNDLISIKDIFAAKELENEENQEEQGLEEKGEEFARMLTELLFELHVAATPDKLNKAMKRAHDWVEEDQTVVSVDVAKVSEEETKKEEKEEKSQDPQEDKKEEKKTKTIEEVYMSSIESLAEVTARCIEQLHKVAELILHGQEEEKPAQDQAKVLIKLTTAMCNEVASLSKKFTNSLTTVGSNKKAEVLNPMISSVLLEGCNSTTYIQDAFQLLLPVLQVSHIQTSCLKAQP
partner: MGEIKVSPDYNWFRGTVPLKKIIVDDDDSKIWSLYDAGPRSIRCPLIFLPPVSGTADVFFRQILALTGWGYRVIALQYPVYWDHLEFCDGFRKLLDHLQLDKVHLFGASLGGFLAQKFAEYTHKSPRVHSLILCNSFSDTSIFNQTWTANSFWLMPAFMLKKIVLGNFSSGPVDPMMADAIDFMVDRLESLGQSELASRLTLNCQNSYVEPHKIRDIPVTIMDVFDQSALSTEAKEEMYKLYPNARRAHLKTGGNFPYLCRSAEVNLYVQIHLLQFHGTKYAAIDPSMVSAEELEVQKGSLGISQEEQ
B4: THAP domain-containing protein 7 (Homo sapiens), Q9BT49 (parent)
chain: MPRHCSAAGCCTRDTRETRNRGISFHRLPKKDNPRRGLWLANCQRLDPSGQGLWDPASEYIYFCSKHFEEDCFELVGISGYHRLKEGAVPTIFESFSKLRRTTKTKGHSYPPGPAEVSRLRRCRKRCSEGRGPTTPFSPPPPADVTCFPVEEASAPATLPASPAGRLEPGLSSPFSDLLGPLGAQADEAGCSAQPSPERQPSPLEPRPVSPSAYMLRLPPPAGAYIQNEHSYQVGSALLWKRRAEAALDALDKAQRQLQACKRREQRLRLRLTKLQQERAREKRAQADARQTLKEHVQDFAMQLSSSMA

Variants of: B1
Conditions: with uxt_human UXT

Variant	effect of a mutation on the interaction
S511N	with no effect
V604I	with no effect

Variants of: B1
Conditions: with fhl3_human FHL3, Q13643
Chain of fhl3_human FHL3, Q13643 (Q13643 whole entry): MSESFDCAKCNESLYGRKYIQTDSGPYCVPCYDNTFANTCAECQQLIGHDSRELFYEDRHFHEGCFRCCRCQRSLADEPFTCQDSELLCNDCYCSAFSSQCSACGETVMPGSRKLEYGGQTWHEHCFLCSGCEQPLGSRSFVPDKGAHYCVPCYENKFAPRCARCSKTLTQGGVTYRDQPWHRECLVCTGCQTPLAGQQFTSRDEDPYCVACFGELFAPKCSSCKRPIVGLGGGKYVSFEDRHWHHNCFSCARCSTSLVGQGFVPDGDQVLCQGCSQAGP

Variant	effect of a mutation on the interaction
S511N	with no effect
V604I	with no effect

Variants of: B1
Conditions: with pdli7_human PDLIM7, Q9NR12
Chain of pdli7_human PDLIM7, Q9NR12 (Q9NR12 whole entry): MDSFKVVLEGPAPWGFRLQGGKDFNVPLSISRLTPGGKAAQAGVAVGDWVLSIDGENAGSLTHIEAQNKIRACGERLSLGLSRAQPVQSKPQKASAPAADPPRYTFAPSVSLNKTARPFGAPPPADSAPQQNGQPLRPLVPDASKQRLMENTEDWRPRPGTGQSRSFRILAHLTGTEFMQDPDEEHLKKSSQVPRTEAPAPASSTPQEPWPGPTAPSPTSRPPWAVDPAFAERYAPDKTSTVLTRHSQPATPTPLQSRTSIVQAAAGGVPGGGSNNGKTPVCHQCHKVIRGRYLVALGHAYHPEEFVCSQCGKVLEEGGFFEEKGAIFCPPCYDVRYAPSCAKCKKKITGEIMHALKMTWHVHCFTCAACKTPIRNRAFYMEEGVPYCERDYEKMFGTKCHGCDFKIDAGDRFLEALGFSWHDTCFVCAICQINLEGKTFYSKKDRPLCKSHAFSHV

Variant	effect of a mutation on the interaction
S511N	with no effect
V604I	with no effect

Variants of: B2
Conditions: with 4et_human EIF4ENIF1, Q9NRA8

Variant	effect of a mutation on the interaction
T297I	with no effect
S7F	with no effect

Variants of: B3
Conditions: with spg21_human SPG21, Q9NZD8

Variant	effect of a mutation on the interaction
S40L	with no effect

Variants of: B4
Conditions: with mdfi_human MDFI

Variant	effect of a mutation on the interaction
E168D	disrupting interaction strength

Variants of: B4
Conditions: with traf2_human TRAF2, Q12933
Chain of traf2_human TRAF2, Q12933 (Q12933 whole entry): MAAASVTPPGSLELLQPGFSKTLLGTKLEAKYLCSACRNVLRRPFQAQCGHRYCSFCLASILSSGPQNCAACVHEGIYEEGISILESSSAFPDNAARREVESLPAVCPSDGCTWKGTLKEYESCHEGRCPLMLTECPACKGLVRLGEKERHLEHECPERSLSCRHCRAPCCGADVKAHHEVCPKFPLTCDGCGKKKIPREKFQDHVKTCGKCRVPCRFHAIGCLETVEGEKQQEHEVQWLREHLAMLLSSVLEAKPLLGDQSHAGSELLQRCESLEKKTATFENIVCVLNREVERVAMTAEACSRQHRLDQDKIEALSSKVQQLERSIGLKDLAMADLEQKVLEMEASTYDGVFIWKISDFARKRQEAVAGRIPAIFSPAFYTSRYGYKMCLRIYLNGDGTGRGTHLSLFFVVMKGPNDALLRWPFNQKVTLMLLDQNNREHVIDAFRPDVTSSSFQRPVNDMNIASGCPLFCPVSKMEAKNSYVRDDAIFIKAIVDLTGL

Variant	effect of a mutation on the interaction
E168D	with no effect

Variants of: B4
Conditions: with set_human SET

Variant	effect of a mutation on the interaction
E168D	with no effect
